Columns and labels:
[1] = target: T1, recombinant human Axl-msFc (human, UniProt P30530 26-449, limits assumed); experiment: ELISA, plates coated with recombinant human Axl-msFc
T1 construct: also called soluble human Axl-msFc; huAxl; not shown: mouse Fc (msFc)
T1 sequence (looked up): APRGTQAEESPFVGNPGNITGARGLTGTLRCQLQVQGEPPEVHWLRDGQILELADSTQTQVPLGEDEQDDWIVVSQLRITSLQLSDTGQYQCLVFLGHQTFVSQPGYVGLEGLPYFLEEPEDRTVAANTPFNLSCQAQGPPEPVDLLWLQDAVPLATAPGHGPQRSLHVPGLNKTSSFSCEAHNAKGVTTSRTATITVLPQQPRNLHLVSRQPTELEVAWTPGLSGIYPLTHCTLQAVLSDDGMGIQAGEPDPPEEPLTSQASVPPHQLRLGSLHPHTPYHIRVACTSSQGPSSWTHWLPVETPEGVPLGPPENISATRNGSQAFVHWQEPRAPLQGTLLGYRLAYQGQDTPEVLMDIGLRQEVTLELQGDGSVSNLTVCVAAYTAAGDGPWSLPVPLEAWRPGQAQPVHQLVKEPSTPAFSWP
Procedure: Binding of Ab301 and four humanized antibody subclones to human Axl was determined by ELISA using the following protocol: Microtiter plates were coated with recombinant human Axl-msFc, in phosphate-buffered saline (PBS), and then blocked with 5% bovine serum albumin (BSA) in PBS. Protein A purified human monoclonal antibodies and an isotype control were added at various concentrations and incubated at 37° C. The plates were washed with PBS/Tween and then incubated with a goat-anti-human IgG Fc-specific polyclonal reagent conjugated to horseradish peroxidase (HRP) at 37° C. After washing, the plates were developed with HRP substrate, and analyzed at OD 450-650 using a microtiter plate reader.

[2] = target: T2, human Axl expressed on the surface of cells (human, UniProt P30530 26-894); experiment: flow cytometry on H1299 cells
T2 construct: whole, on cells; also called huAxl; Axl on H1299 cells
T2 sequence (looked up): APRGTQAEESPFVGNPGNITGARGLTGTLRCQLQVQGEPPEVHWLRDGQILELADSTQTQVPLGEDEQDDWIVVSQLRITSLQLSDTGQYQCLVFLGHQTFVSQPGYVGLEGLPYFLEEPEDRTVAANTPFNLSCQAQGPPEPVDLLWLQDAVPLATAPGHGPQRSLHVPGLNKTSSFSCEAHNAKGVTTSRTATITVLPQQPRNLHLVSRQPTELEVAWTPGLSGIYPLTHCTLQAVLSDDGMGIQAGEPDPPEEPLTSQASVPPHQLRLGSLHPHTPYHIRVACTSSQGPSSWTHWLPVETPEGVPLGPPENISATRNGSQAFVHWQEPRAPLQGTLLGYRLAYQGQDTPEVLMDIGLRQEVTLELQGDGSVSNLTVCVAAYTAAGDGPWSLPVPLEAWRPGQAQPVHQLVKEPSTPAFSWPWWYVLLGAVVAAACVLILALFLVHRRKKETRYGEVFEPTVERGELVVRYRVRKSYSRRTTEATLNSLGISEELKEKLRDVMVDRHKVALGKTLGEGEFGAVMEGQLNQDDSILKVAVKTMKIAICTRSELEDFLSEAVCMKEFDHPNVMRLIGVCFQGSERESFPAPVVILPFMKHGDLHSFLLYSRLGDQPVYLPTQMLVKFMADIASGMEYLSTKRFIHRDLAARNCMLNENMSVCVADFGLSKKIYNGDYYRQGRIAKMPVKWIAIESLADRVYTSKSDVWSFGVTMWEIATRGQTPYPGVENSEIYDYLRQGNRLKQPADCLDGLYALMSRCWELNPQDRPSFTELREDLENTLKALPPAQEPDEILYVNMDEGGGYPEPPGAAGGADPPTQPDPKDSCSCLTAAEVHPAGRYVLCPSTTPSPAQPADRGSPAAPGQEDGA
Procedure: (§1) The ability of anti-Axl human antibodies to bind to Axl on cells expressing human Axl on their surface was investigated by flow cytometry as follows: Purified antibodies were incubated with either L cells expressing human Axl on their surface or H1299 cells at room temperature on a plate shaker. After 20 minutes, the cells were washed with PBS containing 0.1% BSA and 0.05% NaN₃ (PBA), and the bound antibodies were detected by incubating the cells with a phycoerythrin (PE)-labeled goat anti-human IgG Fc-specific probe. The excess probe was washed from the cells with PBA and the cell-associated fluorescence was determined by analysis using a FACSCanto II™ instrument (BD Biosciences, NJ, USA) according to the manufacturer's directions.

[3] = target: T3, purified extracellular domain of human Axl (human, UniProt P30530 26-451); experiment: ELISA on purified Axl domains coated on plates, Ab301 at 5 ug/mL
T3 construct: extracellular domain; also called human Axl-ECD; Axl-ECD
T3 sequence (looked up): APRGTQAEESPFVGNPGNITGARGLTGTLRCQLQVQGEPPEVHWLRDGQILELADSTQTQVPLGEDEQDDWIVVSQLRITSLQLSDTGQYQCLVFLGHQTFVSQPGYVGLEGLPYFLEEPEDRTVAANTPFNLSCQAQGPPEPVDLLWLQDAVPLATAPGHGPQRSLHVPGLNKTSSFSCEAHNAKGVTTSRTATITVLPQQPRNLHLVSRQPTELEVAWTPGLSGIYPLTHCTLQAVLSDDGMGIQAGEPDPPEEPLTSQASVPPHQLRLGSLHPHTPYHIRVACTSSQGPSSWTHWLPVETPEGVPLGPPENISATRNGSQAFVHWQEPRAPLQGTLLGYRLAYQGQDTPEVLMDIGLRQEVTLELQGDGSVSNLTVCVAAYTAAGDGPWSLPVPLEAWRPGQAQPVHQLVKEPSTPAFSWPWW
Procedure: (§2) Human Axl domains (D1-D4) of the Axl extracellular domain (Axl-ECD) were expressed in Exi293 cells, purified by nickel affinity chromatography and buffer exchanged to PBS. […] Ab301 was added at 5 μg/mL for 1 hour at room temperature, washed, and subsequently incubated with an HRP- conjugated goat anti-human antibody (Jackson Immunoresearch). Plates were washed and incubated with TMB (Pierce Biotechnology).

[4] = target: T4, Domain 1 (Ig-like domain 1) of the human Axl extracellular domain (human, UniProt P30530 34-137); experiment: as above
T4 construct: The tag is not described; also called D1; Domain 1 of the Axl-ECD alone
Procedure: as §2

[5] = target: T5, purified extracellular domain of human MerTK (human, UniProt Q12866 21-505); experiment: ELISA, plates coated with 100 ng purified extracellular domain, titration of Ab301
T5 construct: extracellular domain; also called human MerTK-ECD
T5 sequence (looked up): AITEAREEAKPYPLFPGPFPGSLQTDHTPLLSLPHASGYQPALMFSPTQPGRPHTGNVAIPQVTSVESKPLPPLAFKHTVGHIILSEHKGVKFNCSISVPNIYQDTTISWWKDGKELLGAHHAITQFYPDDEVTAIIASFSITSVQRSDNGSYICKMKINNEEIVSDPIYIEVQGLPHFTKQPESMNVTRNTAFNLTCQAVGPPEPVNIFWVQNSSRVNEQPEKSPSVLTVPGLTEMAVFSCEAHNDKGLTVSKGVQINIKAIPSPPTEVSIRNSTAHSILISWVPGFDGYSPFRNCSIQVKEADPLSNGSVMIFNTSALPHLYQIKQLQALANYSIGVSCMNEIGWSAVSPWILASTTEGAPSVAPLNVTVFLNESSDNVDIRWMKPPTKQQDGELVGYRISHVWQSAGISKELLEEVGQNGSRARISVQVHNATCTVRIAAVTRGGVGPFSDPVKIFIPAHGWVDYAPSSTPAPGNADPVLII
Procedure: Binding of Ab301 to human Axl extracellular domain and its lack of binding to human MerTK extracellular domain was determined using the following protocol: Nunc MaxiSorb™ plates (Thermo Fisher Scientific) were coated with 100 ng of the purified extracellular domain of human Axl or human MerTK in […] borate buffer, overnight at 4° C. Plates were washed and blocked for 1 hour at room temperature with Tris-buffered saline (TBS) with 1% BSA. A titration of Ab301 was added to the coated plates for 1 hour at room temperature, followed by washing and incubation with an HRP-conjugated goat anti-human antibody (Jackson Immunoresearch) for 1 hour at room temperature. Washed plates were incubated with 3,3′,5,5′-Tetramethylbenzidine (TMB) substrate (Thermo Fisher Scientific) and read using a Biotek® plate reader. Data are plotted as the optical density at 450 nm (Abs450) as a function of the log-transformed molar concentration of Ab301, and fit to a 4-parameter binding curve using GraphPad Prism™.

[6] = target: T2, human Axl expressed on the surface of …; experiment: flow cytometry on L cells expressing human Axl
Procedure: as §1

Binder | binding result [1] | binding result [2] | binding result [3] | binding result [4] | binding result [5] | binding result [6]
Ab302 (antibody, V domains shown, Humanized) VH: EVQLVESGGGLVKPGGSLKLSCAASGFTFSDYWMEWVRQAPGKGLEWVAEIRNKVNNYATYYGKSVKGRFTISRDDSKNTLYLQMNSLKTEDTAVYYCNTLRLFAYWGQGTLVTVSS VL: DIQMTQSPSSLSASVGDRVTITCRSSKSLLHRQGITYVYWYQQKPGKVPKLLIYRMSTLASGVPSRFSGSGSGTDFTLTISSLQPEDVATYYCGQLLENPYTFGQGTKLEIK | binds | binds |  |  |  | 
Ab303 (antibody, V domains shown, Humanized) VH: EVQLVESGGGVVQPGRSLRLSCAASGFTFSDYWMEWVRQAPGKGLEWVAEIRNKVNNYATYYGKSVKGRFTISRDNSKNTLYLQMNSLRAEDTAVYYCNTLRLFAYWGQGTLVTVSS VL: DIQMTQSPSSLSASVGDRVTITCRSSKSLLHRQGITYVYWYQQKPGKVPKLLIYRMSTLASGVPSRFSGSGSGTDFTLTISSLQPEDVATYYCGQLLENPYTFGQGTKLEIK | binds | binds |  |  |  | 
Ab305 (antibody, V domains shown, Humanized) VH: EVQLVESGGGLVQPGRSLRLSCTASGFTFSDYWMEWVRQAPGKGLEWVGEIRNKVNNYATYYGKSVKGRFTISRDDSKSIAYLQMNSLKTEDTAVYYCNTLRLFAYWGQGTLVTVSA VL: DIQMTQSPSSLSASVGDRVTITCRSSKSLLHRQGITYVYWYQQKPGKVPKLLIYRMSTLASGVPSRFSGSGSGTDFTLTISSLQPEDVATYYCGQLLENPYTFGQGTKLEIK | binds | binds |  |  |  | 
Ab304 (antibody, V domains shown, Humanized) VH: EVQLVESGGGLVQPGGSLRLSCAASGFTFSDYWMEWVRQAPGKGLEWVGEIRNKVNNYATYYGKSVKGRFTISRDESKNSLYLQMNSLKTEDTAVYYCNTLRLFAYWGQGTTVTVSS VL: DIQMTQSPSSLSASVGDRVTITCRSSKSLLHRQGITYVYWYQQKPGKVPKLLIYRMSTLASGVPSRFSGSGSGTDFTLTISSLQPEDVATYYCGQLLENPYTFGQGTKLEIK | binds | binds |  |  |  | 
Ab301 (antibody, human IgG1, V domains shown, also called anti-Axl antibody Ab301) VH: EVKLEASGGGLVQPGMSVKLSCTTSGFTFSDYWMEWVRQAPGKGLEWVAEIRNKVNNYATYYGKSVKGRFTISRDDSKSIVYLQMNSIRSEDTGIYYCNTLRLFAYWGQGTLVTVSA VL: DIVMTQAPLSISVTPGESPSMSCRSSKSLLHRNGITYVYWYLQKPGKSPQLLIYRMSTLASGVPDRFSGSGSETDFTLKINKVEAEDVGIYYCGQLLENPYTFGAGTRLEIK | binds |  | binds | binds | no binding | binds
